T1: SNX5^PX (PX domain of SNX5) (human, UniProt Q9Y5X3 25-172)
T1 construct: PX domain of sorting nexin 5 (SNX5), human; also called SNX5^PX domain; isolated PX domain; source: E. coli BL21 (DE3), purified (Ni-NTA, TEV cleavage, ion exchange, SEC); not shown: His6-MBP, N-terminal, cleaved
T1 sequence (looked up): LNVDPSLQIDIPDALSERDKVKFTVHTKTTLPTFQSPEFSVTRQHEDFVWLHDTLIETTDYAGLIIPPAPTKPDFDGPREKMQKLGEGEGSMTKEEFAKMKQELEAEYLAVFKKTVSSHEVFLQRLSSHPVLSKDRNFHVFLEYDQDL

B1: SNX5^FL (full-length sorting nexin 5) (natural protein, human, UniProt Q9Y5X3 1-404, looked up)
chain: MAAVPELLQQQEEDRSKLRSVSVDLNVDPSLQIDIPDALSERDKVKFTVHTKTTLPTFQSPEFSVTRQHEDFVWLHDTLIETTDYAGLIIPPAPTKPDFDGPREKMQKLGEGEGSMTKEEFAKMKQELEAEYLAVFKKTVSSHEVFLQRLSSHPVLSKDRNFHVFLEYDQDLSVRRKNTKEMFGGFFKSVVKSADEVLFTGVKEVDDFFEQEKNFLINYYNRIKDSCVKADKMTRSHKNVADDYIHTAACLHSLALEEPTVIKKYLLKVAELFEKLRKVEGRVSSDEDLKLTELLRYYMLNIEAAKDLLYRRTKALIDYENSNKALDKARLKSKDVKLAEAHQQECCQKFEQLSESAKEELINFKRKRVAAFRKNLIEMSELEIKHARNNVSLLQSCIDLFKNN
notes: sorting nexin 5 (SNX5), human, full length; Monomer by SEC-MALS; also called SNX5^WT; source: E. coli BL21 (DE3), purified (glutathione Sepharose, TEV cleavage, SEC); not shown: GST, N-terminal, cleaved

Assays:
Conditions in all cases: both partners purified
[1] = target: T2, ESCPE-1 (SNX1^FL–SNX5^FL heterodimer) (human, UniProt Q13596 1-522; Q9Y5X3 1-404); assay: ITC; 25 °C, 300 mM NaCl, 0.5 mM TCEP, 25 mM HEPES pH 7.5; CI-MPR in the syringe (SNX1^PX in the syringe for its test with the peptide); one-site model
T2 construct: sorting nexin 1 (SNX1), human, full length; sorting nexin 5 (SNX5), human, full length; Single heterodimer by SEC-MALS; The GST tag is called cleavable; also called SNX1–SNX5; SNX1^WT-SNX5^WT; source: E. coli BL21 (DE3), pellets mixed and lysed together, purified (glutathione Sepharose, Ni-NTA, SENP2, ion exchange, SEC); not shown: His6-SUMO3, N-terminal, cleaved; copies: 1 + 1

[2] = target: B1; assay: as above
[3] = target: T2, ESCPE-1 (SNX1^FL–SNX5^FL heterodimer); assay: liposome flotation; CI-MPR_(2330–2491) cross-linked by its N-terminal cysteine to DSPE-Mal (1–6%) on liposomes without phosphoinositides; SNXs incubated 1 h at 4 °C in buffer G; sucrose gradient, floated fraction on SDS-PAGE
[4] = target: B1; assay: as above
[5] = target: T1, SNX5^PX (PX domain of SNX5); assay: ITC; 25 °C, 300 mM NaCl, 0.5 mM TCEP, 25 mM HEPES pH 7.5; 445 µM CI-MPR_(2347–2375) peptide titrated into a mix of 100 µM SNX1^BAR and 20 µM SNX5^PX; one-site model
[6] = target: T3, SNX1^BAR–SNX5^FL heterodimer (human, UniProt Q13596 301-522; Q9Y5X3 1-404); assay: ITC; 25 °C, 300 mM NaCl, 0.5 mM TCEP, 25 mM HEPES pH 7.5; CI-MPR in the syringe (SNX1^PX in the syringe for its test with the peptide); one-site model
T3 construct: BAR domain of SNX1, human; sorting nexin 5 (SNX5), human, full length; also called SNX1^BAR–SNX5 partial heterodimer; source: E. coli BL21 (DE3), purified as for SNX1^FL–SNX5^FL; not shown: His6-SUMO3, N-terminal, cleaved; copies: 1 + 1

[7] = target: T1, SNX5^PX (PX domain of SNX5); assay: as above
[8] = target: T4, His-SUMO-SNX1 (human, UniProt Q13596 1-522); assay: pull-down; 5 µM His-SUMO-SNX1 or mutant held on Ni-NTA beads, 10 µM SNX5 or mutant; 1 h at 4 °C in 150 mM NaCl, 10 mM imidazole, 0.5 mM TCEP, 10 mM HEPES pH 7.5; Coomassie-stained SDS-PAGE
T4 construct: sorting nexin 1 (SNX1), human, full length; Bait of the Ni-NTA pull-down; also called wild-type (WT) SNX1; source: E. coli BL21 (DE3), purified (tag-removal step omitted); not shown: His6-SUMO3, N-terminal, kept

[9] = target: T5, His-SUMO-SNX1 (2× mut)^† (human, UniProt Q13596 1-522, F347A | W511A); assay: as above
T5 construct: sorting nexin 1 (SNX1), human, full length, double mutant; Bait of the Ni-NTA pull-down; source: E. coli BL21 (DE3), purified (tag-removal step omitted); not shown: His6-SUMO3, N-terminal, kept

[10] = target: T6, SNX1^FL (full-length sorting nexin 1) (human, UniProt Q13596 1-522); assay: SEC-MALS; 100 μl of protein at 1 mg ml^−1 in 150 mM NaCl, 0.5 mM TCEP, 10 mM HEPES pH 7.5; Superdex 200 Increase 10/300 GL
T6 construct: sorting nexin 1 (SNX1), human, full length; Homodimer by SEC-MALS; also called SNX1 WT; source: E. coli BL21 (DE3), purified (Ni-NTA, SENP2 tag cleavage, ion exchange, SEC); not shown: His6-SUMO3, N-terminal, cleaved
T6 sequence (Q13596 whole entry): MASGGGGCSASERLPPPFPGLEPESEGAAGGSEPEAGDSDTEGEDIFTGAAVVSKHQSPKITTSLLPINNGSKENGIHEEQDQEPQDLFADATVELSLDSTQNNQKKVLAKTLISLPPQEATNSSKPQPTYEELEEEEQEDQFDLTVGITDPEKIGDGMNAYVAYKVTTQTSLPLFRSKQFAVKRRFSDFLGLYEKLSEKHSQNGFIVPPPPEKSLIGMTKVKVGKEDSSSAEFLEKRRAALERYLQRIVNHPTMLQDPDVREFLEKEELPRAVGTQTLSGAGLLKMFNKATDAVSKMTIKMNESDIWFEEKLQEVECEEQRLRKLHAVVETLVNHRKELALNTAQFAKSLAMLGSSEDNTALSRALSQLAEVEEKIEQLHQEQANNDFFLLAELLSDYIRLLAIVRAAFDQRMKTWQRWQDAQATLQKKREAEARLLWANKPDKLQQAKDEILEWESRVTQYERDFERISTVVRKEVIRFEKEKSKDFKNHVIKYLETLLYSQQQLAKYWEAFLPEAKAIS

T2 sequence (Q13596 whole entry, one chain of several): as the sequence (Q13596 whole entry) above
T4 sequence (Q13596 whole entry): as above
T5 sequence (Q13596 whole entry F347A/W511A): as the sequence (Q13596 whole entry) above, with F347A, W511A counted along it
T3 sequence (Q13596 301-522, chain 1 of 2, one chain of several): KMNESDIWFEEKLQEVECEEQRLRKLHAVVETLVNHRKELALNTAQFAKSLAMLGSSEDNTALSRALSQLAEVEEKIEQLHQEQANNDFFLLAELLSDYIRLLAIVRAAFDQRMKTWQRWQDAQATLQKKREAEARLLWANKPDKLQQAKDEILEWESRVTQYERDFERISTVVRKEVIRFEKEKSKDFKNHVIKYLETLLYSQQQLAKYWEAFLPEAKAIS

| Kd [1] [µM] | binding result [8] | binding result [9] | Binder | also measured |
| --- | --- | --- | --- | --- |
| 2.6 |  |  | SUMO-CI-MPR_(2330–2491) (entire cytosolic tail domain of CI-MPR) (domain or fragment, UniProt P11717 2330-2491, looked up, cation-independent mannose-6-phosphate receptor (CI-MPR), cytosolic tail, residues 2330-2491; also called CI-MPR tail domain; cytoplasmic domain of the CI-MPR; source: E. coli Rosetta (DE3), purified; not shown: His6-SUMO3, N-terminal, kept) ERRETVISKLTTCCRRSSNVSYKYSKVNKEEETDENETEWLMEEIQLPPPRQGKEGQENGHITTKSVKALSSLHGDDQDSEDEVLTIPEVKVHSGRGAGAESSHPVRNAQSNALQEREDDRVGLVRGEKARKGKSSSAQQKTVSSTKLVSFHDDSDEDLLHI | Kd [2]: ~8.8 µM |
|  |  |  | CI-MPR_(2330–2491) cytosolic tail with an N-terminal cysteine, cross-linked to liposomes (domain or fragment, UniProt P11717 2330-2491, looked up, N-terminal cysteine cross-linked to maleimide-functionalized lipid (DSPE-Mal) on liposomes, cation-independent mannose-6-phosphate receptor (CI-MPR), cytosolic tail, residues 2330-2491; also called CI-MPR tail; source: E. coli Rosetta (DE3), purified, conjugated to DSPE-Mal liposomes; not shown: Cys (added for chemical cross-linking), N-terminal, kept) ERRETVISKLTTCCRRSSNVSYKYSKVNKEEETDENETEWLMEEIQLPPPRQGKEGQENGHITTKSVKALSSLHGDDQDSEDEVLTIPEVKVHSGRGAGAESSHPVRNAQSNALQEREDDRVGLVRGEKARKGKSSSAQQKTVSSTKLVSFHDDSDEDLLHI | binding result [3]: binds; binding result [4]: binds |
| 1.5 |  |  | SNVSYKYSKVNKEEETDENETEWLMEEIQ (peptide, UniProt P11717 2347-2375, looked up, Called a peptide in the ITC methods; also called shorter CI-MPR tail segment) | KD into a mixture of SNX5^PX and SNX1^BAR [5]: ~3.2 µM; Kd [6]: ~1.9 µM; Kd [7]: ~8 µM |
|  | binds | binds | SNX5 (4 mut)^‡ (Y219A, M233A, V240A, R368A) (natural protein, human, UniProt Q9Y5X3 1-404, looked up, sorting nexin 5 (SNX5), human, four point mutations; source: E. coli BL21 (DE3), purified (glutathione Sepharose, TEV cleavage, SEC); not shown: GST, N-terminal, cleaved) MAAVPELLQQQEEDRSKLRSVSVDLNVDPSLQIDIPDALSERDKVKFTVHTKTTLPTFQSPEFSVTRQHEDFVWLHDTLIETTDYAGLIIPPAPTKPDFDGPREKMQKLGEGEGSMTKEEFAKMKQELEAEYLAVFKKTVSSHEVFLQRLSSHPVLSKDRNFHVFLEYDQDLSVRRKNTKEMFGGFFKSVVKSADEVLFTGVKEVDDFFEQEKNFLINAYNRIKDSCVKADKATRSHKNAADDYIHTAACLHSLALEEPTVIKKYLLKVAELFEKLRKVEGRVSSDEDLKLTELLRYYMLNIEAAKDLLYRRTKALIDYENSNKALDKARLKSKDVKLAEAHQQECCQKFEQLSESAKEELINFKRKAVAAFRKNLIEMSELEIKHARNNVSLLQSCIDLFKNN |  |
|  | binds |  | SNX5 (6 mut)^§ (Y219A, M233A, V240A, R368A, I398A, F401A) (natural protein, human, UniProt Q9Y5X3 1-404, looked up, sorting nexin 5 (SNX5), human, six point mutations; source: E. coli BL21 (DE3), purified (glutathione Sepharose, TEV cleavage, SEC); not shown: GST, N-terminal, cleaved) MAAVPELLQQQEEDRSKLRSVSVDLNVDPSLQIDIPDALSERDKVKFTVHTKTTLPTFQSPEFSVTRQHEDFVWLHDTLIETTDYAGLIIPPAPTKPDFDGPREKMQKLGEGEGSMTKEEFAKMKQELEAEYLAVFKKTVSSHEVFLQRLSSHPVLSKDRNFHVFLEYDQDLSVRRKNTKEMFGGFFKSVVKSADEVLFTGVKEVDDFFEQEKNFLINAYNRIKDSCVKADKATRSHKNAADDYIHTAACLHSLALEEPTVIKKYLLKVAELFEKLRKVEGRVSSDEDLKLTELLRYYMLNIEAAKDLLYRRTKALIDYENSNKALDKARLKSKDVKLAEAHQQECCQKFEQLSESAKEELINFKRKAVAAFRKNLIEMSELEIKHARNNVSLLQSCADLAKNN |  |
|  | binds | binds | B1 | binding result [10]: binds |

— PMC10352136 (Nature Structural & Molecular Biology, 2023)
